Experimental data as given in the nanobody polyreactivity screen of Harvey et al. (2022).

Experiment: yeast display, Sf9 membrane polyspecificity reagent, FACS + sequencing; frameworks hold sequencing errors
Summary of the method: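 Galactose-induced (36–48 hours) yeast carrying a synthetic nanobody display library were exposed to 10% biotinylated, detergent-solubilized Sf9 membrane reagent at 4 °C for 1 hour. FACS followed streptavidin microbead enrichment, using low and high (top ~1%) gates for expression (anti-HA) and reagent binding (streptavidin). Colony PCR, MiSeq 2 × 250 sequencing and CDR-length filtering followed. Labels for polyreactivity reflect the gate of origin.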
In the case of “QVQLVESGGGLVQAGGSLRLSCAASGRTFYYYAMGWYRQAPGKERELVAAITSGGSTKYADSVKGRFTISRDNAKNTVYLQMNSLKPEDTAVYYCAKRYFSSSRYYYWGQGTQVTVSS”, the “polyreactivity (PSR sort gate)” value is reported as “high polyreactivity”. In the case of “QVQLVESGGGLVQAGGSLRLSCAASGFIFVSYAMGWYRQAPGKERELVAAIDRIGGITYYADSVKGRFSISRDNAKNTVYLQMNSLKPEDTAVYYCAAAARYATVRVGREYYWGQGTQVTVSS”, the “polyreactivity (PSR sort gate)” value is reported as “low polyreactivity”. With “QVQLVESGGGLVQAGGSLGLSCAASGSTFGFYTMGWYRQAPGKERELVATISYSGGDTYYEDSVKGRFTISRDNAKNTVYFQMNSLKPEYTAVYYCAADLGDYVTTYSWLDSWGQGTQVTVSS” the “polyreactivity (PSR sort gate)” value was “low polyreactivity”. For “QVQLVESGGGLVQAGGSLRLSCAASGSIFPLYDMGWYRPAPGKERELVAGISSGGSTNYADSVKGRFTISRDNAKNTVYLQMNSLKPEDTAVYYCAATGSSRYGYWGQGTQVTVSS”, the “polyreactivity (PSR sort gate)” value was “low polyreactivity”. With “QVQLQDSGVGLVQAGGSLRLSCAASGTISYRYRMGSYRQAPRKELELVAGISFGSITYNADSVKGRFTISRDNAKNTVYLQMNSLKPEDIAVYYCAVYQKSYRFFPYWGQGTQVTVSS” the “polyreactivity (PSR sort gate)” value was “high polyreactivity”. For “QVQHVESGGGLLQAGGSLRLSSAATGSTNAMGWYRQAHGKERELVAAISRRGGSTYYADSVKGRFTISRDNAKKTVYLQMFSLKPEDTAVYYCAAPYSTFSYVYWGQGTQLTVSS”, the “polyreactivity (PSR sort gate)” value was “high polyreactivity”. For “QVQLVESGGGLVQAGGSRRLSCAASGRTFVGTAMGWSRQAPGKERELVAAMSGDGSTNYADSVKGRFTISRDNAKNTVYLQMNSLKPEDTAVYYCAADGVTRYYQRTYTRYGYWGQGTQVTVSS”, the “polyreactivity (PSR sort gate)” value was “low polyreactivity”. For “QVQLVESGGGLVQAGGSLRLSCAASGSIFGSYAMGWYRQAPGKERELVAGITRRSGSTYYADSVKGRFTISRDNAKNTVYLQMNSLKPEDTAVYYCAADTWFGMDYWGQGTQVTVSS”, the “polyreactivity (PSR sort gate)” value was “high polyreactivity”. In the case of “QVQLVESVGGLVQAGGSLRLSCAASGSTIANYAMGWYRQAPGKERELVARIRHSDGSTYYADSVKGRFTISRDNAKNTVYLQMNSLKPEDTAVYYCNVAYPRYRGNPRQSGMGYWGQGTQVTVSS”, the “polyreactivity (PSR sort gate)” value is reported as “high polyreactivity”. For “QVQLVESGGGLVQAGGSLRLSCAASGSIFNGYAMGWYRQAPGKERELVADIRSGGSTYYADSVKGRFTISRDNAKYTVYLQMNSLKPEDTAVYYCAADTITDGYDYWGQGTQVTVSS”, the “polyreactivity (PSR sort gate)” value was “low polyreactivity”. With “QVHLVESGGGLVQAGGSLRLSCAASGSTFFLYAMGWYRQAPGKERELVAAISSGGSTYYADSVKGRFTISRDNAKNTVYLQMTRLKPEDTAVYYCARDRIDTTDRTWRGDYWGQGTQATVSS” the “polyreactivity (PSR sort gate)” value was “low polyreactivity”. For “QVQLVESGGGLVQAGGSLRLSSAASGRTFEGYAMGWYRQAPGKERELVAAISGSSGSTYYADSVKGRFTISRDNAKNTVYLQMNSLKPEDTAVYYCNADYDWPGGSDYWGQGTQVTVSS”, the “polyreactivity (PSR sort gate)” value was “low polyreactivity”. In the case of “QVQLVESGGGLVQAGGSLRLSCAASGSIFTVNAMGWYRQAPGKERELVAAISDSGGSTYYADSVKGRFTISRDNAKNTVYLQMISLKPEDTAVYYCAVEIYYFVYGISYDYWGQGTQVTVSS”, the “polyreactivity (PSR sort gate)” value is reported as “high polyreactivity”. With “QVQLVESGGGLVQAGGSLRLSCAASGSTFEVNAMGWYRQAPGKERELVATITRSGGSTYYADSVKGRFTISRDNAKNTVYLQMNSLKPEDTAVYYCNAMWELKWGQGTQVTVSS” the “polyreactivity (PSR sort gate)” value was “low polyreactivity”. In the case of “QVQLVESGGGLVQAGGSLRLSCAASGFIFGGYAMGWSRQAPGKERELVADISSSGGSTYYADSVKGRFTLSRDNAKNTVYLQMNSLKPEDTAVYDCAKVGWSRRYYYWGQGTQVTVSS”, the “polyreactivity (PSR sort gate)” value is reported as “high polyreactivity”. For “QVQLVESGGGLVQAGGSLRLSCAAYGSIFLYYTMGRYRQAPGKERELVAAISRSGGSTYYADSEKGRFTISRDNALNTVYLQMNSLKPEDTAVYFCGSRSGYIYEYWGQGTQVTVSS”, the “polyreactivity (PSR sort gate)” value was “high polyreactivity”. With “QVQLVESGGGLVQAGGSLRLSCAASGYTFRYYAMGWYRQAPGKERELVAAITGSGGSTYYADSVKGRFTISRDNAKNTVYLQMNSLKPEDTAVYYCNTVTTSYKRSGKFDYWGQGTQVTVSS” the “polyreactivity (PSR sort gate)” value was “high polyreactivity”. With “QGQLVESGGGLVQAGGSLRLSCAGSGRTFSSNAMGWYRQGRGKVRELVASISFRGGRTYYADSVKGRFTISRHNAKKTVYLQMNSLKPEDTAVYYCVSRTKRTGYGYWGQGTQVTVSS” the “polyreactivity (PSR sort gate)” value was “high polyreactivity”. For “QVQLVESGGGLVQAGGSLRLSCAASGSTFPLYAMGWYRPAPGKEREFVAAINRSTGTTYYADSVKGRFTISRDNAKNTVYLQMNSLKPEDTAVYYCAARVYYRTVLGGYYYWGQGTQVTVSS”, the “polyreactivity (PSR sort gate)” value was “low polyreactivity”. In the case of “QVQLVESGGGLVQAGGSLRLSCAASGFIYSYAMGWYRQAPGKERELVAAISRSGGSTYYADSVKGRFTISRDNAKNTVYLQKNSLKPEDTAVYYCAALRRYPRDNIMYYYPYDYWGQGTQVTVSS”, the “polyreactivity (PSR sort gate)” value is reported as “high polyreactivity”. For “QVQLVESGGGLVQAGGSLRLSCAASGRTFSGYAMGWDRQAPGKERELDAAISRGGSTNYADSVKGRFTISRDNAKNTVYLQMNSLKPEDTAVYYCAVRVYYGWAQPGYYYWGQGTQVTVSS”, the “polyreactivity (PSR sort gate)” value was “high polyreactivity”. With “QVQLVESGGGLVQAGGSLRLSCAASGRIFGHYAMGWYRQAPGKERELVAAINWRGGSTYYADSVKGRFTISRDNAKNTVYLQMNSLKPEDTAVYYCAAANFRSYLSQTGPRAYYYWGQGTQVTVSS” the “polyreactivity (PSR sort gate)” value was “low polyreactivity”. For “QVQLVEAGGGLVQAGGSLRLSCAASGRTFRWYAMGWYRQAPGKERELVAAITIGGASTYYADSVKGRFTISRDNAKNTVYLQMNSLQPEYTAVNYCNAVFVGNDYWGQGTLVTVSS”, the “polyreactivity (PSR sort gate)” value was “low polyreactivity”. With “QVQLVESGGRLVQAGGSLRLSCAASGLIFYTYAMGWYRKAPGKERELVADINRSDGSTYYADSVKGRFTISRDNAKNTVYLQMNSLKPEDTAVYYCAVVGPYYSRFGGRYYYWGQGTQVTVSS” the “polyreactivity (PSR sort gate)” value was “low polyreactivity”. In the case of “QVQLEESVGGLVQAGGSLRIICAASGSIFSVNSIGWSRQAPGKERELVAAITRDSGSTNYADSVKGRFTISRDNAKNTVYLQMNSLKPEDTAVYYCAADFYYNVSTTIVNFSYDYWGHGTQVTVSS”, the “polyreactivity (PSR sort gate)” value is reported as “high polyreactivity”. In the case of “QVQLVESGGGLVQAGGSLRLSCAASGSTSYRYAMGWYRQAPGKERELVATITSGGRTYYADSVKGRFTISRDNAKNTVYLQMNSLKPEDTAVYYCNKLNYWYKHYYWGQGTQVTVSS”, the “polyreactivity (PSR sort gate)” value is reported as “high polyreactivity”. With “QVQLVESGGGLVQAGGSIRLSCAASGSTFVWNAMGWYRQAPGKERELVAAISSSGGSTYYADSVKGRFTISRDNAKNTVYLQMNSLKPEDTAVYYCAAYYGRRRFGYWGQGTQVTVSS” the “polyreactivity (PSR sort gate)” value was “high polyreactivity”. In the case of “QVQLVESGGGLVQAGGSLRLSCAASGRTLVYYAMGSYRQSPGKERELVAAISWSGSRTYYADSVKGRFTISRDNAKNTVYLQMNSLKPEDTAVYYCATLTFRTNGTMDYWGQGTQVTVSS”, the “polyreactivity (PSR sort gate)” value is reported as “high polyreactivity”. With “QVQLVESGGGLVQAGGSLRLSGAASGRTFPYNTMGWYRQAPGKEWELVASITYTDGSTSYAYSVKGRFTISRDNAKNTVYLQMNCLKPEDTAVYYCAADYYAHQDYRFDYCGQGTQVTVSS” the “polyreactivity (PSR sort gate)” value was “low polyreactivity”. For “QVQLQEGGGGLVQAGGSLRLSCAASGYISYGDDMGWYRQAPGEERELVASIGLDATTNYADSVKGRFTISRDNAKITVYLQMNSLKPEDTAVYYCAADVGSGVLCGYWGQGTQMTVSS”, the “polyreactivity (PSR sort gate)” value was “high polyreactivity”. With “QVQLVESGGGLVQAGGSLRLSCAASGSIFYPYAMGWYRQAPGKERELVAAISRSGGSTRYADSVKGRFTISRDNAKNTVYLQMNSLKPEDTAVYYCAVRVFYGVGLIGYYYWGQGTQVTVSS” the “polyreactivity (PSR sort gate)” value was “high polyreactivity”. In the case of “QVHLGETGGGLVQAGGSLRLSCAASGSIFSSYAMGWYRQAPGKETELVATITRGGRTSYADSVKGRFTISRDNAKNTVYLQMNSLKPEDTAVDYCAADLYDNVGEFNYWGEGTQVTVSS”, the “polyreactivity (PSR sort gate)” value is reported as “low polyreactivity”.
